Measurements reported in US20210024646A1 (published 2021).

T1: extracellular domain of human CD73 protein (CD73-ECD), C-terminus polyhistidine-tagged (UniProt P21589 27-547)
T1 chain: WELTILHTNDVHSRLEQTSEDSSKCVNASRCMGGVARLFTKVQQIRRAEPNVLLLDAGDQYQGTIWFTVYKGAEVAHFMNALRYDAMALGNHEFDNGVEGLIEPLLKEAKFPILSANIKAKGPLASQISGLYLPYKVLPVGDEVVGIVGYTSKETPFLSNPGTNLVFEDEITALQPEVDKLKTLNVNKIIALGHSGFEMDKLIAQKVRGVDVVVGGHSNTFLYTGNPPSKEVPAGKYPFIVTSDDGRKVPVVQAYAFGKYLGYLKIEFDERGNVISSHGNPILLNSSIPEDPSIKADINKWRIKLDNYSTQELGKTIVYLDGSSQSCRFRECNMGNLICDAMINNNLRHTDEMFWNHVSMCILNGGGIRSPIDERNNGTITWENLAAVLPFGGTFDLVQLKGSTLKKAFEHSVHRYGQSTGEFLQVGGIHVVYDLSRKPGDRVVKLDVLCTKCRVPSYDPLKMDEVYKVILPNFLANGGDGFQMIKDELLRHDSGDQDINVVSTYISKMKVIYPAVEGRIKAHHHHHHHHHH

T2: Carbon-terminal polyhistidine-labeled recombinant cynomolgus monkey CD73 enzyme (cynomolgus monkey, UniProt A0A2K5V5U7 1-547)
T2 chain: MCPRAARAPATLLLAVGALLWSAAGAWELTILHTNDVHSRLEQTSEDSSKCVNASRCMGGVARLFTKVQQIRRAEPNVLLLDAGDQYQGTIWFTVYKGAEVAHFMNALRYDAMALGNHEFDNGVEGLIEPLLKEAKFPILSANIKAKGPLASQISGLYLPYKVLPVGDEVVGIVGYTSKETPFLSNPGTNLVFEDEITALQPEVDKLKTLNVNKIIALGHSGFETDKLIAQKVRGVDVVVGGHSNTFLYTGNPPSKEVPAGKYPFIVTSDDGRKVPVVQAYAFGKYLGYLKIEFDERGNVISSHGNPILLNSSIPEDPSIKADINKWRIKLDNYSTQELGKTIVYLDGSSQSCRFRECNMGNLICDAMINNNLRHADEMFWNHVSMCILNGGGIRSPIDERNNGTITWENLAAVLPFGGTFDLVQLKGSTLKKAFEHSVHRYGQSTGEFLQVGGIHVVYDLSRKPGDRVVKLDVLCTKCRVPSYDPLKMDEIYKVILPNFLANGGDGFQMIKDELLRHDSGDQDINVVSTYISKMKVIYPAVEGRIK

T3: CD73 on the surface of human tumor cells (human, UniProt P21589 27-549)
T3 chain: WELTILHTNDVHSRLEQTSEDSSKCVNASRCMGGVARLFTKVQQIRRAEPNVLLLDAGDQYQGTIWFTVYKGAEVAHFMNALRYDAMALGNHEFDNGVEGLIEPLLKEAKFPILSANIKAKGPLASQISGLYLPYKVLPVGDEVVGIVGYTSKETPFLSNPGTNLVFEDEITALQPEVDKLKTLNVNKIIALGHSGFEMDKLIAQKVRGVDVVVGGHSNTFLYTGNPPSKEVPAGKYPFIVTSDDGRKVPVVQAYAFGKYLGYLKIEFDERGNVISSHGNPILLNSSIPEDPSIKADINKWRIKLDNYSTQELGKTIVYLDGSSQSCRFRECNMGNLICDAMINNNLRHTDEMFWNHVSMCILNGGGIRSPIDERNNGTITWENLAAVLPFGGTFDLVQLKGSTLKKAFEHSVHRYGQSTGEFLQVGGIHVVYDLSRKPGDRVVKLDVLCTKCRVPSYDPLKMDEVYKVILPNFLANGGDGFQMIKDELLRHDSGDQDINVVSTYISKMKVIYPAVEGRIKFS


Tests used:
[1] = molecular target: T1, extracellular domain of human CD73 …; assay: enzyme inhibition; left table
[2] = molecular target: T1, extracellular domain of human CD73 …; assay: enzyme inhibition; right table
[3] = molecular target: T2, Carbon-terminal polyhistidine-labeled …; assay: enzyme inhibition; left table
[4] = molecular target: T2, Carbon-terminal polyhistidine-labeled …; assay: enzyme inhibition; right table
[5] = molecular target: T1, extracellular domain of human CD73 …; assay: ELISA
[6] = molecular target: T3, CD73 on the surface of human tumor cells; assay: inhibition of cell-surface CD73 enzyme activity; right panel
[7] = molecular target: T3, CD73 on the surface of human tumor cells; assay: FACS; MDA-MB-231 cells, right table
[8] = molecular target: T3, CD73 on the surface of human tumor cells; assay: FACS; NCI-H1299 cells, right table
[9] = molecular target: T3, CD73 on the surface of human tumor cells; assay: inhibition of cell-surface CD73 enzyme activity; left panel
[10] = molecular target: T3, CD73 on the surface of human tumor cells; assay: FACS; NCI-H1299 cells, left table
[11] = molecular target: T3, CD73 on the surface of human tumor cells; assay: FACS; MDA-MB-231 cells, left table

Row | Binder | IC50 [1] [nM] | IC50 [2] [nM] | IC50 [3] [nM] | IC50 [4] [nM] | EC50 [5] [nM] | IC50 [6] [nM] | EC50 [7] [nM] | EC50 [8] [nM] | IC50 [9] [nM] | EC50 [10] [nM] | EC50 [11] [nM]
1 | Hu001c-15 (antibody, V domains shown) VH: QVQLVQSGAEVKKPGASVKVSCKTSGYTFTNYYIYWVRQAPGQRLEWMGWIYPGNLNIKYNEKFKGRVTITADTSASTAYMELSSLRSEDTAVYYCARDDNYAWFAYWGQGTLVTVSS VL: DIQMTQSPSSLSASVGDRVTITCKASQDVSTAVAWYQQKPGKSPKLLIYWTNTRHTGVPSRFSGSGSGTDHTLTISSLQPEDFATYYCQQHYSTPFTFGQGTKLEIK | 0.04 | 0.02 | 0.1 | 0.05 | 0.115 | – | – | – | – | – | –
2 | Hu002c-2 (antibody, V domains shown) VH: QVQLVQSGAEVKKPGASVKVSCKASGYTLTSYWMHWVRQAPGQGLEWMGEINPSQGRSNYNEKFKSRVTMTRDTSTSTVYMELSSLRSEDTAVYYCARRGVSGNYFDYWGQGTLVTVSS VL: DIQMTQSPSSLSASVGDRVTITCKASQDINTYLSWFQQKPGKAPKSLIYRSNILVSGVPSRFSGSGSGQDYTLTISSLQPEDFATYYCLQYDEFPYTFGQGTKLEIK | 0.042 | – | 0.043 | – | 0.131 | – | – | – | 0.478 | 0.874 | 0.666
3 | Hu002c-4 (antibody, V domains shown) VH: QVQLVQSGAEVKKPGASVKVSCKASGYTLTSYWMHWVRQAPGQGLEWMGEINPSQGRSNYNEKFKSRVTMTRDTSTSTVYMELSSLRSEDTAVYYCARRGVSGNYFDYWGQGTLVTVSS VL: DIQMTQSPSSLSASVGDRVTITCKASQDINTYLSWFQQKPGKSPKSLIYRSNILVSGVPSRFSGSGSGQDYTLTISSLQPEDFAIYYCLQYDEFPYTFGGGTKLEI | 0.049 | – | 0.047 | – | 0.106 | – | – | – | 0.33 | 0.873 | 0.696
4 | Hu002c-3 (antibody, V domains shown) VH: QVQLVQSGAEVKKPGASVKVSCKASGYTLTSYWMHWVRQAPGQGLEWMGEINPSQGRSNYNEKFKSRVTMTRDTSTSTVYMELSSLRSEDTAVYYCARRGVSGNYFDYWGQGTLVTVSS VL: DIQMTQSPSSLSASVGDRVTITCKASQDINTYLSWFQQKPGKSPKSLIYRSNILVSGVPSRFSGSGSGQDYTLTISSLQPEDFATYYCLQYDEFPYTFGGGTKLEIK | 0.036 | – | 0.046 | – | 0.089 | – | – | – | 0.535 | 0.902 | 0.743
5 | Hu002c-6 (antibody, V domains shown) VH: QVQLVQSGAEVKKPGASVKVSCKASGYTLTSYWMHWVRQAPGQGLEWIGEINPSQGRSNYNEKFKSRVTLTVDRSTSTVYMELSSLRSEDTAVYYCARRGVSGNYFDYWGQGTLVTVSS VL: DIQMTQSPSSLSASVGDRVTITCKASQDINTYLSWFQQKPGKAPKSLIYRSNILVSGVPSRFSGSGSGQDYTLTISSLQPEDFATYYCLQYDEFPYTFGQGTKLEIK | 0.064 | – | 0.055 | – | 0.091 | – | – | – | 0.41 | 0.836 | 0.69

Continued, values first:

Row | IC50 [1] [nM] | IC50 [2] [nM] | IC50 [3] [nM] | IC50 [4] [nM] | EC50 [5] [nM] | IC50 [6] [nM] | EC50 [7] [nM] | EC50 [8] [nM] | IC50 [9] [nM] | EC50 [10] [nM] | EC50 [11] [nM] | Binder
6 | – | 0.068 | – | 0.072 | 0.099 | 0.327 | 0.632 | 0.86 | – | – | – | Hu002c-16 (antibody, V domains shown) VH: QVQLVQSGAEVKKPGASVKVSCKASGYTLTSYWMHWVKKAPGQGLEWIGEINPSQGRSNYNEKFKSKVTLTVDRSTSTVYMELSSLRSEDTAVYYCARRGVSGNYFDYWGQGTLVTVSS VL: DIQMTQSPSSLSASVGDRVTITCKASQDINTYLSWFQQKPGKSPKSLIYRSNILVSGVPSRFSGSGSGQDYTLTISSLQPEDFAIYYCLQYDEFPYTFGGGTKLEI
7 | 0.028 | – | 0.052 | – | 0.098 | – | – | – | 0.279 | 0.829 | 0.659 | Hu002c-7 (antibody, V domains shown) VH: QVQLVQSGAEVKKPGASVKVSCKASGYTLTSYWMHWVRQAPGQGLEWIGEINPSQGRSNYNEKFKSRVTLTVDRSTSTVYMELSSLRSEDTAVYYCARRGVSGNYFDYWGQGTLVTVSS VL: DIQMTQSPSSLSASVGDRVTITCKASQDINTYLSWFQQKPGKSPKSLIYRSNILVSGVPSRFSGSGSGQDYTLTISSLQPEDFATYYCLQYDEFPYTFGGGTKLEIK
8 | – | 0.059 | – | 0.059 | 0.093 | 0.441 | 0.702 | 0.758 | – | – | – | Hu002c-10 (antibody, V domains shown) VH: QVQLVQSGAEVKKPGASVKVSCKASGYTLTSYWMHWVRQAPGQGLEWIGEINPSQGRSNYNEKFKSKVTLTVDRSTSTVYMELSSLRSEDTAVYYCARRGVSGNYFDYWGQGTLVTVSS VL: DIQMTQSPSSLSASVGDRVTITCKASQDINTYLSWFQQKPGKAPKSLIYRSNILVSGVPSRFSGSGSGQDYTLTISSLQPEDFATYYCLQYDEFPYTFGQGTKLEIK
9 | – | 0.075 | – | 0.074 | 0.104 | 0.591 | 0.717 | 0.804 | – | – | – | Hu002c-15 (antibody, V domains shown) VH: QVQLVQSGAEVKKPGASVKVSCKASGYTLTSYWMHWVKKAPGQGLEWIGEINPSQGRSNYNEKFKSKVTLTVDRSTSTVYMELSSLRSEDTAVYYCARRGVSGNYFDYWGQGTLVTVSS VL: DIQMTQSPSSLSASVGDRVTITCKASQDINTYLSWFQQKPGKSPKSLIYRSNILVSGVPSRFSGSGSGQDYTLTISSLQPEDFATYYCLQYDEFPYTFGGGTKLEIK
10 | 0.025 | – | 0.041 | – | 0.107 | – | – | – | 0.223 | 0.91 | 0.662 | Hu002c-8 (antibody, V domains shown) VH: QVQLVQSGAEVKKPGASVKVSCKASGYTLTSYWMHWVRQAPGQGLEWIGEINPSQGRSNYNEKFKSRVTLTVDRSTSTVYMELSSLRSEDTAVYYCARRGVSGNYFDYWGQGTLVTVSS VL: DIQMTQSPSSLSASVGDRVTITCKASQDINTYLSWFQQKPGKSPKSLIYRSNILVSGVPSRFSGSGSGQDYTLTISSLQPEDFAIYYCLQYDEFPYTFGGGTKLEI
